{
  "source": "paper PMC13625576",
  "experiment_in_all_cases": "SPR",
  "key": {"[1]": {"target": "16A Fab W34F mutant (mouse)"}, "[2]": {"target": "16A Fab R32G mutant (mouse)"}, "[3]": {"target": "14A Fab G32R mutant (mouse)"}},
  "data": [
    {"substance": "Thr-glycosylated MUC1 peptide RPAPGST(GalNAc)APPAHG", "values": [
      {"measurement": "Kd", "setting": "[1]", "result": 1220, "unit": "nM"},
      {"measurement": "koff", "setting": "[1]", "result": 0.09, "unit": "s⁻¹"},
      {"measurement": "kon", "setting": "[1]", "result": 73600, "unit": "M⁻¹ s⁻¹"},
      {"measurement": "Kd", "setting": "[2]", "result": 22.9, "unit": "nM"},
      {"measurement": "koff", "setting": "[2]", "result": 0.00823, "unit": "s⁻¹"},
      {"measurement": "kon", "setting": "[2]", "result": 359000, "unit": "M⁻¹ s⁻¹"},
      {"measurement": "koff", "setting": "[3]", "result": 0.00159, "unit": "s⁻¹"},
      {"measurement": "kon", "setting": "[3]", "result": 314000, "unit": "M⁻¹ s⁻¹"}
    ]},
    {"substance": "nonglycosylated MUC1 peptide …", "values": [
      {"measurement": "Kd", "setting": "[1]", "result": 3430, "unit": "nM"},
      {"measurement": "koff", "setting": "[1]", "result": 0.295, "unit": "s⁻¹"},
      {"measurement": "kon", "setting": "[1]", "result": 86200, "unit": "M⁻¹ s⁻¹"},
      {"measurement": "Kd", "setting": "[2]", "result": 326, "unit": "nM"},
      {"measurement": "koff", "setting": "[2]", "result": 0.0532, "unit": "s⁻¹"},
      {"measurement": "kon", "setting": "[2]", "result": 163000, "unit": "M⁻¹ s⁻¹"},
      {"measurement": "Kd", "setting": "[3]", "result": 122, "unit": "nM"},
      {"measurement": "koff", "setting": "[3]", "result": 0.0233, "unit": "s⁻¹"},
      {"measurement": "kon", "setting": "[3]", "result": 191000, "unit": "M⁻¹ s⁻¹"}
    ]},
    {"substance": "doubly glycosylated MUC1 peptide RPAPGS(GalNAc)T(GalNAc)APPAHG", "values": [
      {"measurement": "Kd", "setting": "[1]", "result": 1130, "unit": "nM"},
      {"measurement": "koff", "setting": "[1]", "result": 0.0901, "unit": "s⁻¹"},
      {"measurement": "kon", "setting": "[1]", "result": 79700, "unit": "M⁻¹ s⁻¹"},
      {"measurement": "koff", "setting": "[2]", "result": 0.00183, "unit": "s⁻¹"},
      {"measurement": "kon", "setting": "[2]", "result": 534000, "unit": "M⁻¹ s⁻¹"},
      {"measurement": "Kd", "setting": "[3]", "result": 4.5, "unit": "nM"},
      {"measurement": "koff", "setting": "[3]", "result": 0.00137, "unit": "s⁻¹"},
      {"measurement": "kon", "setting": "[3]", "result": 303000, "unit": "M⁻¹ s⁻¹"}
    ]},
    {"substance": "Ser-glycosylated MUC1 peptide RPAPGS(GalNAc)TAPPAHG", "values": [
      {"measurement": "Kd", "setting": "[1]", "result": 3910, "unit": "nM"},
      {"measurement": "koff", "setting": "[1]", "result": 0.337, "unit": "s⁻¹"},
      {"measurement": "kon", "setting": "[1]", "result": 86200, "unit": "M⁻¹ s⁻¹"},
      {"measurement": "Kd", "setting": "[2]", "result": 168, "unit": "nM"},
      {"measurement": "koff", "setting": "[2]", "result": 0.0294, "unit": "s⁻¹"},
      {"measurement": "kon", "setting": "[2]", "result": 174000, "unit": "M⁻¹ s⁻¹"},
      {"measurement": "Kd", "setting": "[3]", "result": 128, "unit": "nM"},
      {"measurement": "koff", "setting": "[3]", "result": 0.0229, "unit": "s⁻¹"},
      {"measurement": "kon", "setting": "[3]", "result": 180000, "unit": "M⁻¹ s⁻¹"}
    ]}
  ]
}
